Source: the supplement of paper PMC12764529
± gives the half width of the 95% confidence interval.

Legend:
[1] = folding stability dG unfold (combined trypsin and chymotrypsin); higher = more stable
In short: (§1)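 Mini-proteins designed to be under 80 residues and free of cysteine were carried in a PA-tagged cDNA display construct and digested with trypsin and with chymotrypsin. Each protease was applied at 11 threefold-diluted concentrations, alongside a no-protease condition, before sequencing. K50 came from Bayesian fitting of the sequencing counts, and unfolding free energy was obtained by comparing it with a sequence-predicted unfolded-state K50 and a shared folded-state K50, for each protease separately or for both together. Designs were retained only if their AlphaFold2 dimer inter-PAE exceeded 15.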

[2] = folding stability dG unfold from trypsin proteolysis; higher = more stable
In short: as §1

[3] = folding stability dG unfold from chymotrypsin proteolysis; higher = more stable
In short: as §1

SAGGSAGGSSLEEIKAAAEEAVAAGHPVLTVTSGSGKVVTVEVGESPIESAGPLDGVTVTLTGSAGGSAGGS [r20_44_JUSTAS]
folding stability dG unfold [1]: 0.723 ± 0.073 kcal/mol
folding stability dG unfold [2]: 1.02 ± 0.056 kcal/mol
folding stability dG unfold [3]: 0.443 ± 0.038 kcal/mol

SAGGSAGGSSLTVTYDPSTGTLTITVPEDQTSVKIKYGDKTYTVPLPPGQTFTVPANTFTLESSAGGSAGGS [r20_26_TrMRF]
folding stability dG unfold [1]: 1.29 ± 0.11 kcal/mol
folding stability dG unfold [2]: 0.745 ± 0.071 kcal/mol
folding stability dG unfold [3]: 1.54 ± 0.08 kcal/mol

SAGGSAGGSSMTLTIEPPEEGPPLLVEVDETEEIVTGDGTPVKVTTLKITIGEEEMTLTVTTLSAGGSAGGS [r20_39_JUSTAS]
folding stability dG unfold [1]: 2.1 ± 0.15 kcal/mol
folding stability dG unfold [2]: 1.71 ± 0.098 kcal/mol
folding stability dG unfold [3]: 2.46 ± 0.057 kcal/mol

SAGGSAGGSSMTLTSEKTEKFTEGSKEFLKKTETWKLPGNSTLTKETIIDPSSDKYKEKISLLSAGGSAGGS [r12_1035_JUSTAS]
folding stability dG unfold [1]: -0.159 ± 0.18 kcal/mol
folding stability dG unfold [2]: -0.727 ± 0.24 kcal/mol
folding stability dG unfold [3]: -0.0253 ± 0.24 kcal/mol

SAGGSAGGSSMTLTTLEVNPSVTIEPQPGSIVVKTPVTTLVKAGDTLVTLESESITVLPPDLLSAGGSAGGS [r12_1023_JUSTAS]
folding stability dG unfold [1]: 1.03 ± 0.062 kcal/mol
folding stability dG unfold [2]: 0.486 ± 0.048 kcal/mol
folding stability dG unfold [3]: 1.2 ± 0.036 kcal/mol

SAGGSAGGSSMYTYPELGVKVTTTPLPTDSTLVTATFPDGSVYKFTVDPSGNLVTSTPIVVNSSAGGSAGGS [r12_56_JUSTAS]
folding stability dG unfold [1]: 0.784 ± 0.06 kcal/mol
folding stability dG unfold [2]: 0.326 ± 0.018 kcal/mol
folding stability dG unfold [3]: 1.01 ± 0.064 kcal/mol

SAGGSAGGSSNGITLKKPGGIEIKLPKPPSVKPVTVTTTFVFTTPDGKLVFVPKTTTLPPSLLSAGGSAGGS [r12_1027_JUSTAS]
folding stability dG unfold [1]: 1.83 ± 0.29 kcal/mol
folding stability dG unfold [2]: 1.59 ± 0.15 kcal/mol
folding stability dG unfold [3]: 2.25 ± 0.2 kcal/mol

SAGGSAGGSSPDNKPVPPRFMIHVEIEPIKIPPEMREAAKDDPDNIDEIYVITIDVYFVGDDFSAGGSAGGS [r12_196_TrROS]
folding stability dG unfold [1]: 2.58 ± 0.074 kcal/mol
folding stability dG unfold [2]: 2.22 ± 0.063 kcal/mol
folding stability dG unfold [3]: 2.81 ± 0.07 kcal/mol

SAGGSAGGSSPLIEKLRKDPNVTKIEIDTVKNTTYIYTPNKIYIINSKGEIEKVEEVSPEILKSAGGSAGGS [r12_895_JUSTAS]
folding stability dG unfold [1]: 1.81 ± 0.17 kcal/mol
folding stability dG unfold [2]: 0.743 ± 0.067 kcal/mol
folding stability dG unfold [3]: 2.36 ± 0.072 kcal/mol

SAGGSAGGSSPLLEAALEIAKTLPPDSEVELPILNPETGTFVRVRVVYDEETGEFKVESVEFSSAGGSAGGS [r12_186_TrMRF]
folding stability dG unfold [1]: 1.54 ± 0.1 kcal/mol
folding stability dG unfold [2]: 1.5 ± 0.018 kcal/mol
folding stability dG unfold [3]: 1.44 ± 0.12 kcal/mol

SAGGSAGGSSPVRTLTIPTENLTPEEILELVKNNPVDSVVLNADSEEEEKLKEELKKAGIKVLSAGGSAGGS [r12_610_JUSTAS]
folding stability dG unfold [1]: -0.0698 ± 0.098 kcal/mol
folding stability dG unfold [2]: -0.501 ± 0.071 kcal/mol
folding stability dG unfold [3]: 0.138 ± 0.15 kcal/mol

SAGGSAGGSSSMTLTTDDGSTLDSVTRDPNSDTATVTYSGSGETVTATATTLPDGSVVVTVVTSAGGSAGGS [r12_839_JUSTAS]
folding stability dG unfold [1]: 1.08 ± 0.11 kcal/mol
folding stability dG unfold [2]: 1.26 ± 0.054 kcal/mol
folding stability dG unfold [3]: 0.784 ± 0.092 kcal/mol

SAGGSAGGSSSVVSTLEETPDSVVEKVETPDPIIVERVPLPDGTVEVRVFKPDGTPISISTLGSAGGSAGGS [r12_1061_JUSTAS]
folding stability dG unfold [1]: 0.507 ± 0.12 kcal/mol
folding stability dG unfold [2]: 0.99 ± 0.036 kcal/mol
folding stability dG unfold [3]: 0.0395 ± 0.18 kcal/mol

SAGGSAGGSSTLTLTVRVEVTVEVDGKTYTFTAELTLTVELPPLPEEDLKLYRTDDGELRLVRSAGGSAGGS [r12_1031_TrROS_Hall]
folding stability dG unfold [1]: 2.88 ± 0.47 kcal/mol
folding stability dG unfold [2]: 2.94 ± 0.21 kcal/mol
folding stability dG unfold [3]: 2.91 ± 0.24 kcal/mol

SAGGSAGGSSVKAKLLSYSRDPTSDLVSVELLIEKSSETIPITLTVPPSEVQPGATITIEIRPSAGGSAGGS [r12_76_JUSTAS]
folding stability dG unfold [1]: 0.289 ± 0.072 kcal/mol
folding stability dG unfold [2]: -0.616 ± 0.16 kcal/mol
folding stability dG unfold [3]: 0.609 ± 0.11 kcal/mol

SAGGSAGGSSVTLTFTGGNSEVTVELDAGGEGGFLARVTVVTESDGKLETVEADFYLGSLPGLSAGGSAGGS [r12_769_TrMRF]
folding stability dG unfold [1]: 3.29 ± 0.13 kcal/mol
folding stability dG unfold [2]: 2.75 ± 0.13 kcal/mol
folding stability dG unfold [3]: 3.77 ± 0.065 kcal/mol

SAGGSAGGSTILDALEKGFEITDIEPNNDGPYMLTVRNPEEGYRVTIMIHPNGDIMIQVQPVPSAGGSAGGS [r12_166_TrROS]
folding stability dG unfold [1]: 2.06 ± 0.1 kcal/mol
folding stability dG unfold [2]: 1.83 ± 0.075 kcal/mol
folding stability dG unfold [3]: 2.19 ± 0.042 kcal/mol

SAGGSAGGSTITFFFDNPEQIEKLIEELMDKNNVEVEVEPHPDNGMPMVTFTNPNNGKEITIMSAGGSAGGS [r12_635_TrROS]
folding stability dG unfold [1]: 0.54 ± 0.21 kcal/mol
folding stability dG unfold [2]: 0.48 ± 0.057 kcal/mol
folding stability dG unfold [3]: 0.497 ± 0.23 kcal/mol

SAGGSAGGSTIVIRLSKEELENMTAEELAEALAEEGAEVTVTVEYDEETDELVVTIEIHPEDLSAGGSAGGS [r12_716_TrROS_Hall]
folding stability dG unfold [1]: 2.11 ± 0.13 kcal/mol
folding stability dG unfold [2]: 2.12 ± 0.12 kcal/mol
folding stability dG unfold [3]: 2.01 ± 0.063 kcal/mol

SAGGSAGGSTLEEVRKIAEEAVKKGYPYVVISAPGGLKKVFKVEEDDIVEIPDSEGYTVELLSSAGGSAGGS [r20_44_TrMRF]
folding stability dG unfold [1]: 0.52 ± 0.12 kcal/mol
folding stability dG unfold [2]: 0.202 ± 0.07 kcal/mol
folding stability dG unfold [3]: 0.85 ± 0.14 kcal/mol

SAGGSAGGSTLRLRFRTPDGRLFEIEAEVRPDPDGRVYRLLRIREYDPETDEWLERPFRLPILSAGGSAGGS [r12_57_TrMRF]
folding stability dG unfold [1]: 3.82 ± 0.056 kcal/mol
folding stability dG unfold [2]: 3.77 ± 0.12 kcal/mol
folding stability dG unfold [3]: 3.83 ± 0.019 kcal/mol
